Source: PMC8998802 (2019)

What was measured:
Test in all cases: microscale thermophoresis
CaV2.2 AID peptide AID [1] = molecular target: T1, CaV2.2 AID peptide AID (UniProt Q00975, IPPQ present)
T1 chain: QQIERELNGYLEWIFKAE

CaV2.1 AID peptide AID [2] = molecular target: T2, CaV2.1 AID peptide AID (UniProt O00555)
T2 chain: QQIERELNGYMEWISKAE

CaV2.2 AID peptide AID [3] = molecular target: T3, CaV2.2 AID peptide AID (UniProt Q00975)
T3 chain: QQIERELNGYLEWIFKAE

CaV2.1 AID peptide AID [4] = molecular target: T4, CaV2.1 AID peptide AID (UniProt O00555, IPPQ present)
T4 chain: QQIERELNGYMEWISKAE

CaV1.1 AID peptide AID [5] = molecular target: T5, CaV1.1 AID peptide AID (UniProt Q13698, IPPQ present)
T5 chain: QQLDEDLRGYMSWITQGE

CaV1.1 AID peptide AID [6] = molecular target: T6, CaV1.1 AID peptide AID (UniProt Q13698)
T6 chain: QQLDEDLRGYMSWITQGE

Kd (CaV2.2 AID peptide AID [1]): 208 nM
Kd (CaV2.1 AID peptide AID [2]): 18.3 nM
Kd (CaV2.2 AID peptide AID [3]): 12 nM
Kd (CaV2.1 AID peptide AID [4]): 93 nM
Kd (CaV1.1 AID peptide AID [5]): 51 nM
Kd (CaV1.1 AID peptide AID [6]): 24 nM
B1: CaVβ2 (protein)
chain: not shown
